Test results taken from the Human Domainome abundance scans (Beltran et al. 2025).
± gives the uncertainty stated by the source.

B1: Serine/threonine-protein kinase A-Raf, residues 21 to 89; numbered along this chain, P10398 (parent)
chain: VKVYLPNKQRTVVTVRDGMSVYDSLDKALKVRGLNQDCCVVYRLIKGRKTVTAWDTAIAPLDGEELIVE

Variants of: B1
Assay: abundance fitness (aPCA) (normalised: wild type 0, dead -1); higher = more abundant; growth selection in yeast, the domain comes from the species named
Settings: Homo sapiens

Abundance fitness of substitutions, site by site:
V12: M -0.264 ± 0.047 | K -0.111 ± 0.055 | D -0.341 ± 0.18 | F -0.254 ± 0.19 | L -0.189 ± 0.041 | A -0.503 ± 0.077 | H -0.115 ± 0.14 | P -0.748 ± 0.26 | T -0.096 ± 0.065 | Q -0.18 ± 0.069 | W -0.067 ± 0.048 | N -0.325 ± 0.17 | I -0.117 ± 0.36 | G -0.983 ± 0.14 | Y 0.019 ± 0.086 | C -0.304 ± 0.099 | R -0.096 ± 0.04 | E -0.066 ± 0.033
P6: L -0.804 ± 0.21 | H -0.683 ± 0.34 | S -0.233 ± 0.24 | W -1.01 ± 0.37 | G -0.463 ± 0.28 | Q -0.363 ± 0.17 | C -0.55 ± 0.24
V13: L -0.202 ± 0.048 | C -0.206 ± 0.074 | K -0.955 ± 0.37 | R -0.78 ± 0.078 | I 0.039 ± 0.064 | W -0.856 ± 0.095 | F -0.795 ± 0.2 | D -0.714 ± 0.23 | M -0.892 ± 0.19 | P -0.772 ± 0.15 | Q -0.468 ± 0.11 | S -1 ± 0.17 | G -1.06 ± 0.16 | E -0.857 ± 0.3 | T -0.864 ± 0.25
Q9: W -0.448 ± 0.064 | D 0.028 ± 0.094 | C -0.479 ± 0.12 | E -0.008 ± 0.064 | A -0.198 ± 0.047 | T -0.209 ± 0.069 | S -0.11 ± 0.059 | N -0.332 ± 0.17 | M -0.149 ± 0.082 | L -0.455 ± 0.063 | R -0.211 ± 0.043 | I -0.162 ± 0.094 | Y -0.458 ± 0.3 | H -0.559 ± 0.28 | K -0.042 ± 0.095 | G -0.297 ± 0.053 | P -0.876 ± 0.15 | V -0.035 ± 0.046
N7: I -0.936 ± 0.15 | F -0.49 ± 0.055 | L -0.735 ± 0.05 | T -0.655 ± 0.072 | M -0.406 ± 0.039 | D 0.039 ± 0.054 | K -0.343 ± 0.055 | Y -0.19 ± 0.087 | G 0.041 ± 0.026 | Q -0.216 ± 0.071 | E -0.17 ± 0.036 | H -0.272 ± 0.065 | S -0.321 ± 0.042 | C -0.521 ± 0.079 | A -0.44 ± 0.041 | P -0.861 ± 0.1 | V -0.929 ± 0.073
K2: R 0.038 ± 0.057 | L -0.349 ± 0.09 | Y -0.313 ± 0.19 | N -0.139 ± 0.17 | S -0.172 ± 0.091 | A -0.242 ± 0.082 | T 0.057 ± 0.065 | D -0.416 ± 0.26 | E -0.379 ± 0.06 | G -0.37 ± 0.079 | V -0.118 ± 0.067 | P -0.528 ± 0.12 | M -0.217 ± 0.11 | W -0.314 ± 0.15 | F -0.466 ± 0.33 | Q -0.32 ± 0.062
T11: D -0.233 ± 0.13 | S -0.582 ± 0.066 | R -0.652 ± 0.063 | K -0.371 ± 0.079 | W -0.652 ± 0.09 | L 0.052 ± 0.047 | M -0.002 ± 0.059 | E -0.108 ± 0.072 | I -0.072 ± 0.1 | F -0.08 ± 0.073 | V 0.038 ± 0.049 | P -0.979 ± 0.19 | C -0.064 ± 0.12 | Y -0.351 ± 0.1 | Q -0.1 ± 0.057 | G -0.919 ± 0.12
V3: I -0.298 ± 0.16 | C -0.274 ± 0.12 | E -0.745 ± 0.12 | F -0.552 ± 0.092 | A -0.672 ± 0.086 | W -0.877 ± 0.1 | S -0.856 ± 0.09 | T -0.985 ± 0.15 | P -1.01 ± 0.13 | K -0.622 ± 0.11 | Q -1.02 ± 0.23 | Y -0.016 ± 0.14 | M -0.814 ± 0.18 | D -0.794 ± 0.2 | R -0.808 ± 0.089 | L -0.191 ± 0.037 | G -0.966 ± 0.18
K8: M -0.107 ± 0.042 | Q -0.031 ± 0.054 | G 0.16 ± 0.033 | T -0.286 ± 0.052 | P -1.02 ± 0.18 | I -0.683 ± 0.16 | C -0.243 ± 0.068 | W -0.355 ± 0.054 | H -0.102 ± 0.11 | L -0.363 ± 0.037 | D -0.133 ± 0.1 | V -0.723 ± 0.071 | S -0.111 ± 0.04 | R -0.005 ± 0.04 | N 0.132 ± 0.073 | E 0 ± 0.043 | A -0.042 ± 0.048 | Y -0.231 ± 0.18 | F -0.363 ± 0.072
T14: A -0.078 ± 0.058 | K -0.008 ± 0.061 | G -0.295 ± 0.042 | P -0.005 ± 0.09 | N -0.097 ± 0.12 | Y -0.415 ± 0.37 | C -0.251 ± 0.087 | S -0.156 ± 0.067 | H -0.213 ± 0.32 | L -0.172 ± 0.058 | Q 0.034 ± 0.065 | M -0.113 ± 0.083 | W -0.098 ± 0.067 | E -0.138 ± 0.055 | V -0.126 ± 0.063 | F -0.01 ± 0.092 | D -0.205 ± 0.098
V1: I -0.096 ± 0.18 | M -0.141 ± 0.1 | L -0.076 ± 0.13 | G -0.744 ± 0.17 | S -0.528 ± 0.25 | C -0.184 ± 0.28 | E -0.833 ± 0.22
